Source: patent publication US20110189729

Molecular target: lambda integrase Int-h/218 h/218 mutant (substitutions not given) (Bacteriophage lambda) (UniProt P03700)
Experiment: cell_activity
Conditions: CHO-DG44

Sequence: TCTGTTACAGGTCACTAATACCATCTAAGTAGTTGATTCATAGTGACTGCATATGTTGTGTTTTACAGTATTATGTAGTCTGTTTTTTATGCAAAATCTAATTTAATATATTGATATTTATATCATTTTACGTTTCTCGTTCAGCTTTTTTATACTAAGTTGGCATTATAAAAAAGCATTGCTTATCAATTTGTTGCAACGAACAGGTCACTATCAGTCAAAATAAAATCATTATTTGATTTC / GAAATCAAATAATGATTTTATTTTGACTGATAGTGACCTGTTCGTTGCAACAAATTGATAAGCAATGCTTTTTTATAATGCCAACTTAGTATAAAAAAGCTGAACGAGAAACGTAAAATGATATAAATATCAATATATTAAATTAGATTTTGCATAAAAAACAGACTACATAATACTGTAAAACACAACATATGCAGTCACTATGAATCAACTACTTAGATGGTATTAGTGACCTGTAACAGA / GCTGTTACAGGTCACTAATACCATCTATGTAGTTGATTCATATTGTCTGCATATCTTGTGTTTTACAGTATTATCTAGTCTGTTTTTTATCCAAAATCTAATTTATTATATTGATATTTATATCATTTTACGTTTCTCGTTCAGCTTTTTTATACTAACTTG / CAAGTTAGTATAAAAAAGCTGAACGAGAAACGTAAAATGATATAAATATCAATATAATAAATTAGATTTTGGATAAAAAACAGACTAGATAATACTGTAAAACACAAGATATGCAGACAATATGAATCAACTACATAGATGGTATTAGTGACCTGTAACAGC [attP ; attR.a]
- activity (% fluorescent cells) (attP x attR.a, with IHF and XIS): 1.5

Sequence: CTGCTTTTTTATACTAAGTTGGCATTATAAAAAAGCATTGCTTATCAATTTGTTGCAACGAACAGGTCACTATCAGTCAAAATAAAATCATTATTTGATTTC / GAAATCAAATAATGATTTTATTTTGACTGATAGTGACCTGTTCGTTGCAACAAATTGATAAGCAATGCTTTTTTATAATGCCAACTTAGTATAAAAAAGCAG / TCTGTTACAGGTCACTAATACCATCTAAGTAGTTGATTCATAGTGACTGCATATGTTGTGTTTTACAGTATTATGTAGTCTGTTTTTTATGCAAAATCTAATTTAATATATTGATATTTATATCATTTTACGTTTCTCGTTCAGCTTTTTTATACTAACTTG / CAAGTTAGTATAAAAAAGCTGAACGAGAAACGTAAAATGATATAAATATCAATATATTAAATTAGATTTTGCATAAAAAACAGACTACATAATACTGTAAAACACAACATATGCAGTCACTATGAATCAACTACTTAGATGGTATTAGTGACCTGTAACAGA [attL ; attR]
- activity (% fluorescent cells) (attL x attR, with IHF and XIS, PCR verified): 3.2

Sequence: CTGCTTTTTTATACTAAGTTGGCATTATAAAAAAGCATTGCTTATCAATTTGTTGCAACGAACAGGTCACTATCAGTCAAAATATAATCATTATTTGATTTC / GAAATCAAATAATGATTATATTTTGACTGATAGTGACCTGTTCGTTGCAACAAATTGATAAGCAATGCTTTTTTATAATGCCAACTTAGTATAAAAAAGCAG / GCTGTTACAGGTCACTAATACCATCTACGTAGTTGATTCATATTGTCTGCATATCTTGTGTTTTACAGTATTATCTAGTCTGTTTTTTATCCAAAATCTAATTTATTATATTGATATTTATATCATTTTACGTTTCTCGTTCAGCTTTTTTATACTAACTTG / CAAGTTAGTATAAAAAAGCTGAACGAGAAACGTAAAATGATATAAATATCAATATAATAAATTAGATTTTGGATAAAAAACAGACTAGATAATACTGTAAAACACAAGATATGCAGACAATATGAATCAACTACGTAGATGGTATTAGTGACCTGTAACAGC [attL.a ; attR.b]
- activity (% fluorescent cells) (attL.a x attR.b, with IHF and XIS, PCR verified): 1.2

Sequence: GCTGTTACAGGTCACTAATACCATCTATGTAGTTGATTCATATTGTCTGCATATCTTGTGTTTTACAGTATTATCTAGTCTGTTTTTTATCCAAAATCTAATTTATTATATTGATATTTATATCATTTTACGTTTCTCGTTCAGCTTTTTTATACTAAGTTGGCATTATAAAAAAGCATTGCTTATCAATTTGTTGCAACGAACAGGTCACTATCAGTCAAAATATAATCATTATTTGATTTC / GAAATCAAATAATGATTATATTTTGACTGATAGTGACCTGTTCGTTGCAACAAATTGATAAGCAATGCTTTTTTATAATGCCAACTTAGTATAAAAAAGCTGAACGAGAAACGTAAAATGATATAAATATCAATATAATAAATTAGATTTTGGATAAAAAACAGACTAGATAATACTGTAAAACACAAGATATGCAGACAATATGAATCAACTACATAGATGGTATTAGTGACCTGTAACAGC / GCTGTTACAGGTCACTAATACCATCTATGTAGTTGATTCATATTGTCTGCATATCTTGTGTTTTACAGTATTATCTAGTCTGTTTTTTATCCAAAATCTAATTTATTATATTGATATTTATATCATTTTACGTTTCTCGTTCAGCTTTTTTATACTAAGTTGGCATTATAAAAAAGCATTGCTTATCAATTTGTTGCAACGAACAGGTCACTATCAGTCAAAATATAATCATTATTTGATTTC / GAAATCAAATAATGATTATATTTTGACTGATAGTGACCTGTTCGTTGCAACAAATTGATAAGCAATGCTTTTTTATAATGCCAACTTAGTATAAAAAAGCTGAACGAGAAACGTAAAATGATATAAATATCAATATAATAAATTAGATTTTGGATAAAAAACAGACTAGATAATACTGTAAAACACAAGATATGCAGACAATATGAATCAACTACATAGATGGTATTAGTGACCTGTAACAGC [attP.a ; attP.a]
- activity (% fluorescent cells) (attP.a x attP.a, no IHF plasmid): 1.9

Sequence: TCTGTTACAGGTCACTAATACCATCTAAGTAGTTGATTCATAGTGACTGCATATGTTGTGTTTTACAGTATTATGTAGTCTGTTTTTTATGCAAAATCTAATTTAATATATTGATATTTATATCATTTTACGTTTCTCGTTCAGCTTTTTTATACTAAGTTGGCATTATAAAAAAGCATTGCTTATCAATTTGTTGCAACGAACAGGTCACTATCAGTCAAAATAAAATCATTATTTGATTTC / GAAATCAAATAATGATTTTATTTTGACTGATAGTGACCTGTTCGTTGCAACAAATTGATAAGCAATGCTTTTTTATAATGCCAACTTAGTATAAAAAAGCTGAACGAGAAACGTAAAATGATATAAATATCAATATATTAAATTAGATTTTGCATAAAAAACAGACTACATAATACTGTAAAACACAACATATGCAGTCACTATGAATCAACTACTTAGATGGTATTAGTGACCTGTAACAGA / CTGCTTTTTTATACTAACTTG / CAAGTTAGTATAAAAAAGCAG [attP ; attB]
- activity (% fluorescent cells) (attP x attB, with IHF, 1.1% without IHF plasmid): 1.7

Sequence: TCTGTTACAGGTCACTAATACCATCTAAGTAGTTGATTCATAGTGACTGCATATGTTGTGTTTTACAGTATTATGTAGTCTGTTTTTTATGCAAAATCTAATTTAATATATTGATATTTATATCATTTTACGTTTCTCGTTCAGCTTTTTTATACTAAGTTGGCATTATAAAAAAGCATTGCTTATCAATTTGTTGCAACGAACAGGTCACTATCAGTCAAAATAAAATCATTATTTGATTTC / GAAATCAAATAATGATTTTATTTTGACTGATAGTGACCTGTTCGTTGCAACAAATTGATAAGCAATGCTTTTTTATAATGCCAACTTAGTATAAAAAAGCTGAACGAGAAACGTAAAATGATATAAATATCAATATATTAAATTAGATTTTGCATAAAAAACAGACTACATAATACTGTAAAACACAACATATGCAGTCACTATGAATCAACTACTTAGATGGTATTAGTGACCTGTAACAGA / GCTGTTACAGGTCACTAATACCATCTACGTAGTTGATTCATATTGTCTGCATATCTTGTGTTTTACAGTATTATCTAGTCTGTTTTTTATCCAAAATCTAATTTATTATATTGATATTTATATCATTTTACGTTTCTCGTTCAGCTTTTTTATACTAACTTG / CAAGTTAGTATAAAAAAGCTGAACGAGAAACGTAAAATGATATAAATATCAATATAATAAATTAGATTTTGGATAAAAAACAGACTAGATAATACTGTAAAACACAAGATATGCAGACAATATGAATCAACTACGTAGATGGTATTAGTGACCTGTAACAGC [attP ; attR.b]
- activity (% fluorescent cells) (attP x attR.b, with IHF and XIS): 1.1

Sequence: CTGCTTTTTTATACTAAGTTGGCATTATAAAAAAGCATTGCTTATCAATTTGTTGCAACGAACAGGTCACTATCAGTCAAAATATAATCATTATTTGATTTC / GAAATCAAATAATGATTATATTTTGACTGATAGTGACCTGTTCGTTGCAACAAATTGATAAGCAATGCTTTTTTATAATGCCAACTTAGTATAAAAAAGCAG / CTGCTTTTTTATACTAACTTG / CAAGTTAGTATAAAAAAGCAG [attL.a ; attB]
- activity (% fluorescent cells) (attL.a x attB, with IHF and XIS, PCR verified): 2
